Results from patent publication US20240425587A1 (Alector, published 2024).
Substitutions are numbered along the chain they refer to. Numbers in names are those of the source.

B1: A11 (antibody, V domains shown)
VH: QVQLVQSGAEVKKPGASVKVSCKASGYTFTSYYMHWVRQAPGQGLEWMGWINPNNGDTNYAQKFQGRVTMTRDTSTSTVYMELSSLRSEDTAVYYCARAGYFDWLLDYYGMDVWGQGTTVTVSS
VL: DIVMTQSPLSLPVTPGEPASISCRSSQSLLHSNGYNYLDWYLQKPGQSPQLLIYDASNLETGVPDRFSGSGSGTDFTLKISRVEAEDVGVYYCMQALQTPFGPGTKVDIK
notes: phage campaign; same VH/VL as E17
B2: E19 (antibody, V domains shown)
VH: QVQLVQSGAEVKKPGSSVKVSCKASGYLFSDYAMNWVRQAPGQGLEWVGWIIPNSGGTKFAQTFQGRVTITADESTSTAYMELSSLRSEDTAVYYCAREHGVVPADHYYYGMDVWGQGTTVTVSS
VL: EIVMTQSPATLSVSPGERATLSCRASQSISSSYLAWYQQKPGQAPRLLIYGASTRATGIPARFSGSGSGTEFTLTISSLQSEDFAVYYCQQYGRFPWTFGQGTKVEIK
notes: phage campaign; same VH/VL as A13
B3: E2 (antibody, V domains shown)
VH: EVQLQESGPSLVKPSQTLSLTCSVTGDSITSGYWNWIRKFPGDKLEYMGYISYTGTTYYNPSLKSRVSITRDTSKNQYYLQLHSVTTEDTATYYCARYPYGNFPFDYWGQGTTLTVSS
VL: SIVMTQTPKFLLVSAGDRVTITCKASQSVRNDVAWYQQRPGQSPKLLIFYASSRYIGAPDRFTGSGYGTDFTFTISTVQAEDLAVYFCQQDYSSPYTFGGGTTLEIK
notes: second hybridoma campaign
B4: A13 (antibody, V domains shown)
VH: B2 VH
VL: B2 VL
notes: phage campaign; same VH/VL as E19
B5: E9 (antibody, V domains shown)
VH: QVQLVQSGAEVKKPGASVKVSCKASGGTFSSYSINWVRQAPGQGLEWMGWINPHSGATKYAERFQGRVTMTRDTSTSTVYMELSSLRSEDTAVYYCASAEEPYDILTGYYGGDAFDIWGQGTMVTVSS
VL: DIQMTQSPSSLSASVGDRVTITCRASQSISKYLNWYQQKPGKAPKLLIYDASNLQAGVPSRFSGSGSGTDFTLTISSLQPEDFATYYCQQANSFPYTFGQGTKLEIK
notes: phage campaign
B6: E11 (antibody, V domains shown)
VH: QVQLVQSGAEVKKPGSSVKVSCKASGGTFSSYDISWVRQAPGQGLEWMGGIIPTFVTPKYAQKFQGRVTITADESTSTAYMELSSLRSEDTAVYYCAREGPKQLEEYYYYYMDVWGKGTTVTVSS
VL: B5 VL with S26T, S28A, K31N, Y32S, N34A, D50A, N53Y, A56S, N92Y, Y96W
notes: phage campaign
B7: E14 (antibody, V domains shown)
VH: QVQLVQSGAEVKKPGSSVKVSCKASGYTFTNYDINWVRQAPGQGLEWMGGIIPIFGTANYAQKFQGRVTITADESTSTAYMELSSLRSEDTAVYYCTNGVGAGWFDLWGRGTLVTVSS
VL: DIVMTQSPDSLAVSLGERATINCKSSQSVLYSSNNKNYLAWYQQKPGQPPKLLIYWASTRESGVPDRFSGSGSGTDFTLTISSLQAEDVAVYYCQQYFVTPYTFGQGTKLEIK
notes: phage campaign
B8: E1 (antibody, V domains shown)
VH: EVQLVESGGGLVQPGESLKLSCESNEYEFPSHDMSWVRKTPEKRLELVAAINSDGGSTYYPDTMERRFIISRDNTKKTLYLQMSSLRSEDTALYYCARQLMGTGAMDYWGQGTSVTVSS
VL: DIQMTQSSSYLSVSLGGRVTITCKASDHINNWLAWYQQKPGNAPRLLISGATSLETGVPSRFSGSGSGKDYTLSITSLQTEDVATYYCQQYWSTPYTFGGGTKLEIK
notes: second hybridoma campaign
B9: E3 (antibody, V domains shown)
VH: QAYLQQSGAELVRSGASVKMSCKASGNTFTYYNLHWIRQTPGQGLEWIGYIFPGNGDAYYNQNFKGKATLTADTSSSTAYMQISSLTFEDSAVYFCARSPHYYGSGFDYWGQGTPLTVSS
VL: B8 VL with R18G, Y96W
notes: second hybridoma campaign
B10: E8 (antibody, V domains shown)
VH: QVQLVQSGAEVKKPGASVKVSCKASGYAFTNYDINWVRQAPGQGLEWLGWINPYSGDTNYAQKLQGRVTMTRDTSTSTVYMELSSLRSEDTAVYYCTIPSSYGEYYYYYMDVWGKGTTVTVSS
VL: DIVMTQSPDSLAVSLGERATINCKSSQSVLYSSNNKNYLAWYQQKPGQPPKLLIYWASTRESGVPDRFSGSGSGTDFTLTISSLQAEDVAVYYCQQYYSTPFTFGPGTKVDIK
notes: phage campaign
B11: E7 (antibody, V domains shown)
VH: EVQLLESGGGLVKPGGSLRLSCAASGFTFSSYWMSWVRQAPGKGLEWVSAISGSGGSTYYADSVKGRFTISRDDSKNTLYLQMNSLKTEDTAVYYCARHEEVTMVRGVIFAGGITNWGQGTTVTVSS
VL: B2 VL with Q27E, I29V, S30T, R94S, F95S, W97L, Q101G
notes: phage campaign
B12: E6 (antibody, V domains shown)
VH: QVQLVQSGAEVKKPGASVKVSCKASGGTFSSYAISWVRQAPGQGLEWMGWINPNSGGTNFAQKFQGRVTMTRDTSTSTVYMELSSLRSEDTAVYYCARGSGSYPLDYWGRGTLVTVSS
VL: B5 VL with S28D, K31T, Y32W, N34A, N53S, Q55E, A56S, A91T, N92Y, F94A
notes: phage campaign
B13: E16 (antibody, V domains shown)
VH: QVQLKESGPGLVAPSQSLSITCTVSGFSLSGYGVNWVRHLPGKGLEWLGMIWGDGHTDYNSALKSRLSISKDNSKSQVFLKMNSLQTDDTARYYCARDPRFYYGSGPYWYFDVWGAGTTVTVSS
VL: DIVMTQSQKFMSTSVGDRVNITCKASQNVGTAVAWYQQKPGQSPKLLIYSASNRYTGVPDRFTGSGSGTDFTLTISNMQSEDLADYFCQQYSSYPLTFAVGTKLELK
notes: B-cell cloning campaign (mice)

What follows are binders tested against T1, human PILRA, c-term His-Avi tag (human, UniProt Q9UKJ1 20-197, limits assumed) (assay: SPR (Biacore), antibody captured, PILRA as analyte).
T1 construct: not shown: C-terminal His-Avi tag
T1 sequence (Q9UKJ1 20-197 limits assumed): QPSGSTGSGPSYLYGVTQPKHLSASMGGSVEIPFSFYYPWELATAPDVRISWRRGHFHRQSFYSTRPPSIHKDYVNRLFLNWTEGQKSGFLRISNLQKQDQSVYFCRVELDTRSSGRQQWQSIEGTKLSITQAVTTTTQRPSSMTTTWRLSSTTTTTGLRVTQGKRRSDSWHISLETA
Description: Experiments were performed to determine the kinetics of anti-PILRA antibody binding to human […]. The assay is depicted in FIG. 6. A rabbit anti-PILRA was used as a positive control, and H1 LALAPS was used as a negative control. Human PILRA (human PILRA, c-term His-Avi tag, 0.68 mg/mi) was used as the antigen. The running buffer was HBSTE/0.5% BSA, pH 7.4, and the regeneration solution was 10 mM glycine-HCl (pH 2.1). In the assay, antibodies were captured at 10 μg/ml by immobilized anti-huFc or anti-msFc on a Biacore CM5 chip, and human PILRA flowed at 33, 100, and 300 nM. The surface was regenerated after each analyte, and all curves were double-referenced with buffer injections.
For B1, the Kd was 0.0144 µM, the koff was 0.0014 s⁻¹ and the kon was 96000 M⁻¹ s⁻¹.
With B2 the Kd was 0.0861 µM, the koff was 0.009 s⁻¹ and the kon was 100000 M⁻¹ s⁻¹.

The binders below were run against T2, human PILRA, G78 variant, ectopically expressed on 293 cells (human, UniProt Q9UKJ1 20-303) (assay: flow cytometry, 293 cells expressing target).
T2 construct: the cells are labelled G78; also called hA G78 OE; hA
T2 sequence (Q9UKJ1 other isoform, or with tags, fused parts or gaps mutant): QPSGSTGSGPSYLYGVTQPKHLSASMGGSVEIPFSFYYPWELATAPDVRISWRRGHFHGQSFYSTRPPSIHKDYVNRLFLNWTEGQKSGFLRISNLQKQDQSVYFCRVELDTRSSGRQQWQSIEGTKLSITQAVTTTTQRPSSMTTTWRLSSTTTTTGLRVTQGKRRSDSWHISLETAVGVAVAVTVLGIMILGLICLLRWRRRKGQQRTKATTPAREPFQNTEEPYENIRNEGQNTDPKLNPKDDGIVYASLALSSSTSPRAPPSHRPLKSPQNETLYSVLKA
Description: (§1) Briefly, conditioned media containing antibodies were incubated with 293 cells for 30 min at 4° C., washed twice, and then detected with anti-mouse IgG Alexa 647.
B1 was tested, and the EC50 was 0.6 mg/L.
B3 showed an EC50 of 0.4 mg/L.
In the case of B4, the EC50 is reported as 0.8 mg/L.
B5 was tested, and the EC50 was 1.2 mg/L.
Binder B6 has an EC50 of 0.2 mg/L.
For B7, the EC50 was 0.4 mg/L.
Work on B8 yielded an EC50 of 40.4 mg/L.
B9 was tested, and the EC50 was 0.22 mg/L.
In the case of B10, the EC50 is reported as 0.4 mg/L.

These binders were tested against cynomolgus PILRA, ectopically expressed on 293 cells (cynomolgus monkey) (assay: flow cytometry, 293 cells expressing target).
Chain of cynomolgus PILRA, ectopically expressed on 293 cells (cynomolgus monkey) (chain, as listed by the source): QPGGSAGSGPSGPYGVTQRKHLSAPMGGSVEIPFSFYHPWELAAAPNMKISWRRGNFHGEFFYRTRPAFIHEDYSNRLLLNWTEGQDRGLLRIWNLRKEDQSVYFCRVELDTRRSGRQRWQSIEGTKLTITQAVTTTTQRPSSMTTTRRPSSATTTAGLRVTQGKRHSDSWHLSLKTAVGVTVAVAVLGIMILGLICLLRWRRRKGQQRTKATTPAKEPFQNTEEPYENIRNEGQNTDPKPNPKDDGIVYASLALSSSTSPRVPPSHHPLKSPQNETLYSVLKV
Description: as §1
Work on B1 yielded an EC50 of 10.8 mg/L.
B3 gave an EC50 of 92 mg/L.
B11: no binding.
In the case of B4, the EC50 is reported as 0.8 mg/L.
B5: no binding.
B6: no binding.
B12: no binding.
Binder B7 has an EC50 of 0.6 mg/L.
B8: no binding.
B9 showed an EC50 of 0.15 mg/L.
B10: no binding.

The binders below were run against T3, murine PILRA, ectopically expressed on 293 cells (murine, UniProt Q2YFS3 32-302) (assay: flow cytometry, 293 cells expressing target).
T3 construct: also called mA
T3 sequence (Q2YFS3 32-302): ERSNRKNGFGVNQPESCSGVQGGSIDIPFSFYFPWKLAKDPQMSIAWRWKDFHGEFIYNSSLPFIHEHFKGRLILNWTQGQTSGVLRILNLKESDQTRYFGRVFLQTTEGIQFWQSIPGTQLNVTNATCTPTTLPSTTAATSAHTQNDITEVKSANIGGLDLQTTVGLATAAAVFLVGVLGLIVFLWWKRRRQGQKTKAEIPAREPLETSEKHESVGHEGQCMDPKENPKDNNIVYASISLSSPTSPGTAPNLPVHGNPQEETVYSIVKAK
Description: as §1
B3: no binding.
B11: no binding.
B4: no binding.
B5: no binding.
B6: no binding.
B12: no binding.
B13: no binding.
B7: no binding.
B8: no binding.
B9: no binding.
B10: no binding.

These binders were tested against T4, murine PILRB, ectopically expressed on 293 cells (murine, UniProt Q2YFS2 29-224) (assay: flow cytometry, 293 cells expressing target).
T4 construct: whole, on cells; also called mB
T4 sequence (Q2YFS2 29-224): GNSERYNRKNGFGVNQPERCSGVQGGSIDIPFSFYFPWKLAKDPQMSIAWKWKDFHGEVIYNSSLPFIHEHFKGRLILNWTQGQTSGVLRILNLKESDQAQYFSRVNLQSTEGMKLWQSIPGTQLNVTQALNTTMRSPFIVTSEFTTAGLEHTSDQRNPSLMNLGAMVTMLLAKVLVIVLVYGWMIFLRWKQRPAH
Description: as §1
B3: no binding.
B11: no binding.
B4: no binding.
B5: no binding.
B6: no binding.
B12: no binding.
B13: no binding.
B7: no binding.
B8: no binding.
B9: no binding.
B10: no binding.

Each binder was assayed against T5, human PILRB, ectopically expressed on 293 cells (human, UniProt Q9UKJ0 20-227) (assay: flow cytometry, 293 cells expressing target).
T5 construct: also called hB
T5 sequence (Q9UKJ0 20-227): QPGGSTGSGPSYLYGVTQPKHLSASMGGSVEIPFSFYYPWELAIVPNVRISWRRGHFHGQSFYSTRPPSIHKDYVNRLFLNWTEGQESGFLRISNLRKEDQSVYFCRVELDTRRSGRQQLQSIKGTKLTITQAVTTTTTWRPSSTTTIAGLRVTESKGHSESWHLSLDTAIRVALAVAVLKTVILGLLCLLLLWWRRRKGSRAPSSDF
Description: as §1
Work on B1 yielded an EC50 of 1.1 mg/L.
B3 showed an EC50 of 2.9 mg/L.
B11: no binding.
Binder B4 has an EC50 of 6.2 mg/L.
B5: no binding.
B6 was tested, and the EC50 was 5.9 mg/L.
B12: no binding.
With B13 the EC50 was 3.1 mg/L.
B7: no binding.
B8: no binding.
B9 showed an EC50 of 0.78 mg/L.
Binder B10 has an EC50 of 2.9 mg/L.
